In patent publication US20120115830A1 (QUEEN S UNIVERSITY OF BELFAST, published 2012):

How the values were obtained:
[1] = molecular target: T1, XAP3 cloned in-frame into pACT plasmid (UniProt Q9BYM8 1-510); assay: mammalian two-hybrid (firefly luciferase) in L132 cells
T1 construct: Mammalian two-hybrid construct expressed in L132 cells; also called XAP3 (pACT); not shown: fusion partner encoded by the pACT vector
T1 sequence (looked up): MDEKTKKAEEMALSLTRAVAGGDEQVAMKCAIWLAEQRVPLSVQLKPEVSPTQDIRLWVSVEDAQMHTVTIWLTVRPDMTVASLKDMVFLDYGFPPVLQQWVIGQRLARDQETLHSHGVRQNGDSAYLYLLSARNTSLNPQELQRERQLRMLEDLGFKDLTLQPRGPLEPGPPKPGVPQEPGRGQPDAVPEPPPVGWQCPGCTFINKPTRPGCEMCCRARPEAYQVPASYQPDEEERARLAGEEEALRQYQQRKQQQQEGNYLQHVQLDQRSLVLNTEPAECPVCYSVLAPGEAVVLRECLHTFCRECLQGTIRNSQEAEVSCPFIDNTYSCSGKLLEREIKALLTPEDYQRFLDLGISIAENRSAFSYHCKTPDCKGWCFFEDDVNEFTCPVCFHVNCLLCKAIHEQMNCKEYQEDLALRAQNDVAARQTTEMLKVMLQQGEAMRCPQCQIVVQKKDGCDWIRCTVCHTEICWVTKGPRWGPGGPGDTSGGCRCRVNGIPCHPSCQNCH

[2] = molecular target: T2, USP19 cloned in-frame into pACT plasmid (UniProt O94966 1-1318); assay: cell-based or functional assay
T2 sequence (looked up): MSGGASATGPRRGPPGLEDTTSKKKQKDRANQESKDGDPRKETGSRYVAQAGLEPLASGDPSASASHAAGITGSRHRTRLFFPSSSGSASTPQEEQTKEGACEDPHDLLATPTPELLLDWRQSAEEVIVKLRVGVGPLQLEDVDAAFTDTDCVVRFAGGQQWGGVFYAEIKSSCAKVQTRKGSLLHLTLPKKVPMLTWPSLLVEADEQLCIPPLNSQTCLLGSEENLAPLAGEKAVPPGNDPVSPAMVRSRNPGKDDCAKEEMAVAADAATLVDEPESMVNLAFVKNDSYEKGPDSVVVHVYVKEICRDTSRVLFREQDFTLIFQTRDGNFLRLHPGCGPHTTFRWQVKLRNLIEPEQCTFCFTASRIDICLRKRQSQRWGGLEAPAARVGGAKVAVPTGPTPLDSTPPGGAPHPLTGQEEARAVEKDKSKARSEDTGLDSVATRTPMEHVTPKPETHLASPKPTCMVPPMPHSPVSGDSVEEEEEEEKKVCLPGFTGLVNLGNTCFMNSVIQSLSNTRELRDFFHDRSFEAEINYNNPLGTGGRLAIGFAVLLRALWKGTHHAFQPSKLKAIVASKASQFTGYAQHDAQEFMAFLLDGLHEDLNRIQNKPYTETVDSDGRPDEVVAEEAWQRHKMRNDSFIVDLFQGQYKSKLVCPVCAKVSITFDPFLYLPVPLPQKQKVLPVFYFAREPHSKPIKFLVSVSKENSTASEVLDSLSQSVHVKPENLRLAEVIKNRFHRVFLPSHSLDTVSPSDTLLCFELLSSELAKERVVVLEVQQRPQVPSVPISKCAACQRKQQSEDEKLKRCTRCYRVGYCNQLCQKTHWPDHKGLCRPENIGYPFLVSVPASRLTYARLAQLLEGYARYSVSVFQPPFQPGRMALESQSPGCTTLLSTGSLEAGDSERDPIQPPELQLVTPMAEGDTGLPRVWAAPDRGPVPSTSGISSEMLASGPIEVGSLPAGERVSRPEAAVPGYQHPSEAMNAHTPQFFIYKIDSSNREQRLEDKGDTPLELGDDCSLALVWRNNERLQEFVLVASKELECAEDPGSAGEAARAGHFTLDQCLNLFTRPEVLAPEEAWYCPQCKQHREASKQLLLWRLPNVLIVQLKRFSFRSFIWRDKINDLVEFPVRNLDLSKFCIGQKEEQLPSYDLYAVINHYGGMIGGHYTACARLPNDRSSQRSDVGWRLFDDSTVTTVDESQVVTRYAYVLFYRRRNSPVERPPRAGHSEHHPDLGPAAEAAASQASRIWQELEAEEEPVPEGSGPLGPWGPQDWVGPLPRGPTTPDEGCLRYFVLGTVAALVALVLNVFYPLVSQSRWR

[3] = molecular target: T1, XAP3 cloned in-frame into pACT plasmid; assay: cell-based or functional assay

B1: FKBPLΔ200 (other, not shown: large carriers)
chain: METPPVNTIGEKDTSQPQQEWEKNLRENLDSVIQIRQQPRDPPTETLELEVSPDPASQILEHTQGAEKLVAELEGDSHKSHGSTSQMPEALQASDLWYCPDGSFVKKIVIRGHGLDKPKLGSCCRVLALGFPFGSGPPEGWTELTMGVGPWREETWGELIEKCLESMCQGEEAELQLPGHSGPPVRLTLASFTQGRDSWE
- binding result [1]: no binding

B2: Full length FKBPL cloned in-frame into pBIND plasmid (other, not shown: large carriers)
chain: METPPVNTIGEKDTSQPQQEWEKNLRENLDSVIQIRQQPRDPPTETLELEVSPDPASQILEHTQGAEKLVAELEGDSHKSHGSTSQMPEALQASDLWYCPDGSFVKKIVIRGHGLDKPKLGSCCRVLALGFPFGSGPPEGWTELTMGVGPWREETWGELIEKCLESMCQGEEAELQLPGHSGPPVRLTLASFTQGRDSWELETSEKEALAREERARGTELFRAGNPEGAARCYGRALRLLLTLPPPGPPERTVLHANLAACQLLLGQPQLAAQSCDRVLEREPGHLKALYRRGVAQAALGNLEKATADLKKVLAIDPKNRAAQEELGKVVIQGKNQDAGLAQGLRKMFG
- induction of firefly luminescence [2]: 10 fold
- induction of firefly luminescence [3]: 20 fold
